pKd: −log10 of the molar value.
Tests used:
HLA-A*02:01 = experiment: IEDB peptide-MHC binding, purified MHC/direct/fluorescence; filed as Kd, often an IC50 or EC50 that approximates it; ≥ and ≤ were set here for values at or beyond the usual limits of such assays; settings: source organism: Haemophilus influenzae
HLA-A*02:03 = experiment: IEDB peptide-MHC binding, purified MHC/competitive/radioactivity; filed as Kd, often an IC50 or EC50 that approximates it; ≥ and ≤ were set here for values at or beyond the usual limits of such assays
HLA-A*02:02 = experiment: as above
HLA-A*02:06 = experiment: as above
HLA-A*03:01 [1] = experiment: IEDB peptide-MHC binding, purified MHC/direct/fluorescence; filed as Kd, often an IC50 or EC50 that approximates it; ≥ and ≤ were set here for values at or beyond the usual limits of such assays
HLA-A*33:01 = experiment: IEDB peptide-MHC binding, purified MHC/competitive/radioactivity; filed as Kd, often an IC50 or EC50 that approximates it; ≥ and ≤ were set here for values at or beyond the usual limits of such assays; settings: source organism: Vaccinia virus WR
HLA-A*03:01 [2] = experiment: as above; settings: source organism: Vaccinia virus WR
HLA-A*68:01 = experiment: as above; settings: source organism: Vaccinia virus WR
HLA-A*11:01 = experiment: as above; settings: source organism: Vaccinia virus WR
HLA-A*31:01 = experiment: as above; settings: source organism: Vaccinia virus WR
[3] = source organism: SARS coronavirus Tor2
[4] = source organism: Dengue virus 4 Philippines/H241/1956
[5] = source organism: Vaccinia virus WR
[6] = source organism: Lassa virus Josiah
[7] = source organism: Dengue virus 3 Martinique/1243/1999
[8] = source organism: Mammarenavirus tacaribeense
[9] = source organism: Human immunodeficiency virus type 1 (CLONE 12)

ALLGERPII gave a pKd (HLA-A*02:01) of 5.11.

Work on ALSGVFCGV yielded a pKd (HLA-A*02:03; [3]) of 7.94, a pKd (HLA-A*02:02; [3]) of 8.94 and a pKd (HLA-A*02:06; [3]) of 7.30.

Work on AQPGLLSYV yielded a pKd (HLA-A*02:03; source organism: Mammarenavirus guanaritoense) of 8.26.

AVFKMSPGYV gave a pKd (HLA-A*02:03; [4]) of 8.15.

Work on CAVIPFDDIV yielded a pKd (HLA-A*02:03; [5]) of 5.13, a pKd (HLA-A*02:02; [5]) of 5.53 and a pKd (HLA-A*02:06; [5]) of 6.74.

Sequence CLTVPNITI has a pKd (HLA-A*02:03; [5]) of 7.12, a pKd (HLA-A*02:02; [5]) of 7.02 and a pKd (HLA-A*02:06; [5]) of 5.78.

CNYSKYWYL showed a pKd (HLA-A*02:03; [6]) of 5.15, a pKd (HLA-A*02:02; [6]) of 5.44 and a pKd (HLA-A*02:06; [6]) of 5.57.

DIYDAVRAFL was tested, and the pKd (HLA-A*02:03; [5]) was 5.16, the pKd (HLA-A*02:02; [5]) was 5.84 and the pKd (HLA-A*02:06; [5]) was 4.92.

In the case of DLKHATDYIA, the pKd (HLA-A*02:03; [5]) was 5.53, the pKd (HLA-A*02:02; [5]) was 5.06 and the pKd (HLA-A*02:06; [5]) was 5.98.

Work on DLTAALRDV yielded a pKd (HLA-A*02:06; source organism: Homo sapiens) of no more than 4.55.

In the case of DTIAHINTLI, the pKd (HLA-A*02:03; [5]) was 6.94, the pKd (HLA-A*02:02; [5]) was 5.94 and the pKd (HLA-A*02:06; [5]) was no more than 4.21.

In the case of DTSNNIAEYI, the pKd (HLA-A*02:03; [5]) was 5.04, the pKd (HLA-A*02:02; [5]) was 5.48 and the pKd (HLA-A*02:06; [5]) was no more than 4.34.

With EILRNYLRL the pKd (HLA-A*02:03; [5]) was 5.68, the pKd (HLA-A*02:02; [5]) was 4.85 and the pKd (HLA-A*02:06; [5]) was 4.89.

FTNSQIFNII was tested, and the pKd (HLA-A*02:03; [5]) was 6.34, the pKd (HLA-A*02:02; [5]) was 6.84 and the pKd (HLA-A*02:06; [5]) was 5.92.

With GIITLYLGAV the pKd (HLA-A*02:03; [7]) was 8.30 and the pKd (HLA-A*02:06; [7]) was 8.30.

GLCNYGGILI showed a pKd (HLA-A*02:03; [5]) of 5.49, a pKd (HLA-A*02:02; [5]) of 6.82 and a pKd (HLA-A*02:06; [5]) of 5.30.

With HLYYFITYY the pKd (HLA-A*03:01 [1]; source organism: Giardia lamblia ATCC 50803) was 6.82.

Work on IAGIILLIL yielded a pKd (HLA-A*02:03; [5]) of no more than 4.28, a pKd (HLA-A*02:02; [5]) of 5.38 and a pKd (HLA-A*02:06; [5]) of no more than 4.11.

Work on IALALEQYGI yielded a pKd (HLA-A*02:03; [5]) of 5.31, a pKd (HLA-A*02:02; [5]) of 6.01 and a pKd (HLA-A*02:06; [5]) of 5.95.

IIRVTTELNI gave a pKd (HLA-A*02:03; [5]) of 5.06, a pKd (HLA-A*02:02; [5]) of 5.00 and a pKd (HLA-A*02:06; [5]) of 4.86.

In the case of ILIRTGLLV, the pKd (HLA-A*02:03; source organism: Dengue virus 2 Jamaica/1409/1983) was 7.79.

In the case of IMKDGRVLV, the pKd (HLA-A*02:03; source organism: Dengue virus 2 16681-PDK53) was 7.72.

IMRVMANNV showed a pKd (HLA-A*02:03; [5]) of 5.90, a pKd (HLA-A*02:02; [5]) of 6.40 and a pKd (HLA-A*02:06; [5]) of 5.60.

Sequence INISGYNLSL has a pKd (HLA-A*02:03; [8]) of 5.87, a pKd (HLA-A*02:02; [8]) of 6.75 and a pKd (HLA-A*02:06; [8]) of 4.94.

For ITTLLNETA, the pKd (HLA-A*02:03; [5]) was 6.03, the pKd (HLA-A*02:02; [5]) was 6.38 and the pKd (HLA-A*02:06; [5]) was 6.22.

IVCSKTVKNV showed a pKd (HLA-A*02:03; [5]) of 6.30, a pKd (HLA-A*02:02; [5]) of 4.97 and a pKd (HLA-A*02:06; [5]) of 5.56.

In the case of KLSMGLIAIA, the pKd (HLA-A*02:03; [4]) was 7.64.

With KQNHMQILK the pKd (HLA-A*03:01 [1]; source organism: Francisella tularensis subsp. holarctica LVS) was 6.81.

For KSFFWFNEV, the pKd (HLA-A*02:03; [8]) was 6.58, the pKd (HLA-A*02:02; [8]) was 7.21 and the pKd (HLA-A*02:06; [8]) was 8.50.

Sequence KTDGAVTSPL has a pKd (HLA-A*02:03; [5]) of 6.40, a pKd (HLA-A*02:02; [5]) of 7.21 and a pKd (HLA-A*02:06; [5]) of 6.46.

In the case of KTKISVEKI, the pKd (HLA-A*02:03; [5]) was 6.95, the pKd (HLA-A*02:02; [5]) was 5.12 and the pKd (HLA-A*02:06; [5]) was 4.97.

For LIISTDQDT, the pKd (HLA-A*02:03; [5]) was no more than 4.11, the pKd (HLA-A*02:02; [5]) was no more than 4.11 and the pKd (HLA-A*02:06; [5]) was no more than 4.11.

Work on LIYDDNIDSI yielded a pKd (HLA-A*02:03; [5]) of 7.58, a pKd (HLA-A*02:02; [5]) of 6.92 and a pKd (HLA-A*02:06; [5]) of 6.67.

LLFNKVTLA was tested, and the pKd (HLA-A*02:03; [3]) was 8.97, the pKd (HLA-A*02:02; [3]) was 9.02 and the pKd (HLA-A*02:06; [3]) was 8.05.

LMIFISSFL showed a pKd (HLA-A*02:03; [5]) of 9.89, a pKd (HLA-A*02:02; [5]) of 9.19 and a pKd (HLA-A*02:06; [5]) of 7.75.

In the case of LTNKKYRCMA, the pKd (HLA-A*02:03; [5]) was 5.27, the pKd (HLA-A*02:02; [5]) was no more than 4.46 and the pKd (HLA-A*02:06; [5]) was no more than 4.16.

LTTVFIKYV was tested, and the pKd (HLA-A*02:03; [5]) was 6.17, the pKd (HLA-A*02:02; [5]) was 5.44 and the pKd (HLA-A*02:06; [5]) was 6.89.

LVDKEDTDIV was tested, and the pKd (HLA-A*02:03; [5]) was 5.77, the pKd (HLA-A*02:02; [5]) was 5.43 and the pKd (HLA-A*02:06; [5]) was no more than 4.57.

With NIISYIILFI the pKd (HLA-A*02:03; [5]) was 6.88, the pKd (HLA-A*02:02; [5]) was 6.91 and the pKd (HLA-A*02:06; [5]) was 7.14.

With NIKPVIVPDI the pKd (HLA-A*02:03; [5]) was 6.13, the pKd (HLA-A*02:02; [5]) was 4.99 and the pKd (HLA-A*02:06; [5]) was 6.02.

NITTLLNET gave a pKd (HLA-A*02:03; [5]) of 5.54, a pKd (HLA-A*02:02; [5]) of 5.89 and a pKd (HLA-A*02:06; [5]) of 5.64.

Sequence NLTQLFKYV has a pKd (HLA-A*02:03; [5]) of 6.62, a pKd (HLA-A*02:02; [5]) of 6.49 and a pKd (HLA-A*02:06; [5]) of 6.18.

For PANINDKQIM, the pKd (HLA-A*02:03; [5]) was no more than 4.37, the pKd (HLA-A*02:02; [5]) was no more than 4.31 and the pKd (HLA-A*02:06; [5]) was 4.96.

PLTLLIKTL showed a pKd (HLA-A*02:03; [5]) of 5.21, a pKd (HLA-A*02:02; [5]) of 5.28 and a pKd (HLA-A*02:06; [5]) of 5.09.

QTVDFTDCRT was tested, and the pKd (HLA-A*02:03; [5]) was no more than 4.27, the pKd (HLA-A*02:02; [5]) was no more than 4.52 and the pKd (HLA-A*02:06; [5]) was 5.44.

RILQQLLFI showed a pKd (HLA-A*02:03; [9]) of 6.27 and a pKd (HLA-A*02:06; [9]) of 7.67.

RLYNSLKRFT showed a pKd (HLA-A*02:03; [5]) of 6.35, a pKd (HLA-A*02:02; [5]) of 5.97 and a pKd (HLA-A*02:06; [5]) of 5.14.

RVKQWVMDTL showed a pKd (HLA-A*02:03; [5]) of 6.16, a pKd (HLA-A*02:02; [5]) of 5.46 and a pKd (HLA-A*02:06; [5]) of no more than 4.56.

Sequence RVLIFILLTA has a pKd (HLA-A*02:06; source organism: Dengue virus 2 Peru/IQT2913/1996) of 6.40.

SAFNDDGIYI showed a pKd (HLA-A*02:03; [5]) of 7.17, a pKd (HLA-A*02:02; [5]) of 7.45 and a pKd (HLA-A*02:06; [5]) of 7.39.

With SINNQLMYDI the pKd (HLA-A*02:03; [5]) was 6.32, the pKd (HLA-A*02:02; [5]) was 6.31 and the pKd (HLA-A*02:06; [5]) was 5.32.

SLCSCICTV gave a pKd (HLA-A*02:03; [3]) of 8.38, a pKd (HLA-A*02:02; [3]) of 8.40 and a pKd (HLA-A*02:06; [3]) of 8.23.

Sequence SLYGRYNCK has a pKd (HLA-A*03:01 [1]; [8]) of 7.05.

Work on SSAVVDNKLK yielded a pKd (HLA-A*33:01) of 4.76, a pKd (HLA-A*03:01 [2]) of 6.54 and a pKd (HLA-A*68:01) of 8.92. The pKd (HLA-A*11:01) was 7.43 and the pKd (HLA-A*31:01) was 5.82.
